Measurements reported in US20010052137A1, “Axin domain-like polypeptide inhibitors of glycogen synthase kinase 3 beta activity and activators of wnt signaling” (Trustees of the University of Pennsylvania, priority 2000, published 2001).
“Also recorded” adds a separate entry of the source.

How the values were obtained:
[1] = test system: GSK-3 beta; assay: In ovo tau phosphorylation assay: GSK-3 beta and Xaxin constructs co-expressed in Xenopus oocytes; assay type: cell-based; conditions: construct co-expressed with GSK-3 beta in Xenopus oocytes; tau microinjected; PHF-1 immunoblot
Procedure: Stage VI Xenopus oocytes were isolated by collagenase treatment (Smith et al., 1994, Meth. Cell Biol. 36:45-58) and were injected with mRNA prepared by in vitro transcription (mMessage Machine™; Ambion, Austin, Tex.). 10 nanoliters of mRNA (containing 1-2 nanograms per nanoliter) was injected for each construct (unless otherwise specified), and the injected oocytes were incubated for 16 hours at 18° C. To analyze the effects of Xaxin constructs on dorsal-ventral pattern formation, Xenopus embryos were injected with 10 nanoliters of mRNA (0.1-0.2 nanogram per nanoliter) into one dorsal or ventral cell of a 4 cell embryo and dorsal axes were assessed at the tadpole stage. For Xaxin co-immunoprecipitation, fertilized eggs were injected with 10 nanoliters of Xaxin tagged with Myc, with hemagglutinin, or with both Myc and hemagglutinin (1 nanogram per nanoliter) and harvested at the blastula stage (stage 8).
In ovo phosphorylation of tau by GSK-3 beta was performed by microinjection of tau protein into oocytes expressing GSK-3 beta and Xaxin constructs. After 90 minutes, oocytes were homogenized and tau phosphorylation was analyzed in western blots using phospho-specific antibodies as described (Hedgepeth et al., 1997, Develop. Biol. 185:82-91). In vitro assays for GSK-3 beta activity were performed as described (Klein et al., 1996, Proc. Natl. Acad. Sci. USA 93:8455-8459). Recombinant GID-2/his protein (described below) was purified by affinity chromatography and added to in vitro assays at selected concentrations.
In the experiments presented in this example, a tau phosphorylation assay (described in Hedgepeth et al., 1997, Develop. Biol. 185:82-91) was used to examine the activity of GSK-3 beta in Xenopus oocytes in the presence of full length axin and axin deletion mutants. […] Furthermore, GSK-3 beta-dependent tau phosphorylation occurs in oocytes at the same sites (tau serine residues 396 and 404) that are phosphorylated by GSK-3 beta in vitro and occurs with similarly rapid kinetics.
GSK-3 beta was expressed in oocytes together with Myc-tagged full length Xaxin or with the amino-terminal (amino acid residues 63-288), GID-1 (amino acid residues 277-545), or carboxyl-terminal (amino acid residues 429-713) fragments of Xaxin, as depicted in FIG. 1A. Purified tau protein was then microinjected into the oocytes, and phosphorylation of tau was measured by immunoblotting using antibody PHF-1 or with antibodies that detect all (i.e. phosphorylated and non-phosphorylated) forms of tau.
In order to identify the domain of axin necessary for GSK-3 beta binding, multiple Myc-tagged GID deletion constructs (shown diagrammatically in FIG. 3A) were individually expressed in Xenopus oocytes in which GSK-3 beta was also expressed. Tau protein was microinjected into the oocytes, and immunoblotting was performed using phosphorylation-state-specific tau antibodies. A parallel group of oocytes expressing GSK-3 beta and the Myc-tagged GID deletion constructs were lysed, and GID proteins were immunoprecipitated using a Myc-specific antibody. The presence or absence of GSK-3 beta in GID immunoprecipitates was detected using GSK-3 beta-specific antibodies. GID deletion constructs which included amino acid residues 380-404 of Xaxin (i.e. constructs GID-1, GID-2, GID-4, GID-5, and GID-6) bound GSK-3 beta and inhibited GSK-3 beta mediated tau phosphorylation, as indicated in FIG. 3A. […] However, changing leucine residue 392 in FIG. 3B to proline abolishes its activity.

[2] = test system: GSK-3 beta; assay: Co-immunoprecipitation of GSK-3 beta with Myc-tagged Xaxin constructs in Xenopus oocytes; assay type: binding; conditions: Myc-tagged construct co-expressed with GSK-3 beta in Xenopus oocytes; anti-Myc IP, anti-GSK-3 beta blot
[3] = test system: Xenopus embryos; assay: Dorsal axis duplication / dorsalization in Xenopus embryos after mRNA injection; assay type: in vivo; conditions: construct expressed in embryos, injection side not stated

B1: deltaDIX: Xaxin having amino acid residues 778-842 deleted (protein)
chain: MSVKGKGFPLDLGGSFTEDAPRPPVPGEEGELITTDQRPFSHTYYSLKNDGIKNETSTATPRRPDLDLGYEPEGSASPTPPYLKWAESLHSLLDDQDGIHLFRTFLQQENCADLLDFWFACSGFRKLEPNDSKVEKRLKLAKAIYKKYVLDSNGIVSRQIKPATKSFIKDCVLRQQIDPAMFDQAQMEIQSMMEDNTYPVFLKSDIYLEYTTIGGESPKNYSDQSSGSGTGKGPSGYLPTLNEDEEWRCDQGGEHERERECIPSSLFSQKLALDSSSHCAGSNRRLSDGREFRPGTWREPVNPYYVNTGYAGAPVTSANDSEQQSMSSDADTMSLTDSSVDGIPPYRLRKHYRREMQESANANGRGPLPHIPRTYHMPKDIHVDPEKFAAELISRLEGVLRDREAEQKLEERLKRVRAEEEGDDGDVSSGPSVISHKLPSGPPMHHFNSRYSETGCVGMQIRDAHEENPESILDEHVQRVMKTPGCQSPGTGRHSPKSRSPDGHLSKTLPGSLGTMQTGHGKHSSKSTAKVDSGNLHHHKHVYHHVHHHGGVKPKEQIDGESTQRVQTNFPWNVESHNYATKSRNYAESMGMAPNPMDSLAYSGKVSMLSKRNAKKADLGKSESASHEMPVVPEDSERHQKILQWIMEGEKEIIRHKKSNHSSSSAKKQPPTELARPLSIERPGAVHPWVSAQLRNVVQPSHPFIQDPTMPPNPAPNPLTQLVSKPGARLEEEEKKAAKMPQKQRLKPQKKNVSAPSQPCDNIVVAYYFCGEPIPYRT
modifications: left off: small tags and cut ends
notes: Xaxin having amino acid residues 778-842 deleted
[1]
  GSK-3 beta-mediated tau phosphorylation (GSK-3 beta activity): partially inhibited
[2]
  binding with GSK-3 beta (co-immunoprecipitation): bound

B2: GID-1: Myc-tagged fragment, amino acid residues 277-545 of Xenopus axin (Xaxin) (protein)
chain: SHCAGSNRRLSDGREFRPGTWREPVNPYYVNTGYAGAPVTSANDSEQQSMSSDADTMSLTDSSVDGIPPYRLRKHYRREMQESANANGRGPLPHIPRTYHMPKDIHVDPEKFAAELISRLEGVLRDREAEQKLEERLKRVRAEEEGDDGDVSSGPSVISHKLPSGPPMHHFNSRYSETGCVGMQIRDAHEENPESILDEHVQRVMKTPGCQSPGTGRHSPKSRSPDGHLSKTLPGSLGTMQTGHGKHSSKSTAKVDSGNLHHHKHVYHH
modifications: left off: small tags and cut ends
[1]
  GSK-3 beta-mediated tau phosphorylation (GSK-3 beta activity): virtually complete inhibition; also recorded: inhibited
[2]
  binding with GSK-3 beta (co-immunoprecipitation): bound
[3]
  effect on axial development / axis formation: complete axis duplication

B3: GID-2: Myc-tagged fragment, Xaxin amino acid residues 320-429 (protein)
chain: DSEQQSMSSDADTMSLTDSSVDGIPPYRLRKHYRREMQESANANGRGPLPHIPRTYHMPKDIHVDPEKFAAELISRLEGVLRDREAEQKLEERLKRVRAEEEGDDGDVSS
modifications: left off: small tags and cut ends
[1]
  GSK-3 beta-mediated tau phosphorylation (GSK-3 beta activity): inhibited
[2]
  binding with GSK-3 beta (co-immunoprecipitation): bound

B4: GID-4: Myc-tagged fragment, Xaxin amino acid residues 350-429 (protein)
chain: KHYRREMQESANANGRGPLPHIPRTYHMPKDIHVDPEKFAAELISRLEGVLRDREAEQKLEERLKRVRAEEEGDDGDVSS
modifications: left off: small tags and cut ends
[1]
  GSK-3 beta-mediated tau phosphorylation (GSK-3 beta activity): inhibited
[2]
  binding with GSK-3 beta (co-immunoprecipitation): bound
